We go through one molecule from publication doi:10.1101/2021.02.02.429416.

Assay [1] deals with KP-VR2 (human). Description: BLI.
A further assay addresses Aflibercept. Description: ELISA.
In assay [2] the target is KP-VR2 (human). Nature of the assay: ELISA.

A word on the Kd: it is a measure of binding affinity in units of concentration. A lower Kd goes with higher affinity. The EC50 is the concentration that produces a half-maximal response. A lower EC50 goes with higher potency in that assay.

B1: Human PlGF-1 (ligand)
chain: LPAVPPQQWALSAGNGSSEVEVVPFQEVWGRSYCRALERLVDVVSEYPSEVEHMFSPSCVSLLRCTGCCGDENLHCVPVETANVTMQLLKIRSGDRPSYVELTFSQHVRCECRPLREKMKPERCGDAVPRR
Take B1: the Kd with KP-VR2 (human) [1] turned out to be 0.78 nM. Moreover, the EC50 was found to be 30.5 nM with Aflibercept and 2.39 nM in the assay with KP-VR2 (human) [2].
